# Data as given in publication PMC3260234.
# T1: OxyS (Mycobacterium tuberculosis) (UniProt L7N677)
# T1 sequence: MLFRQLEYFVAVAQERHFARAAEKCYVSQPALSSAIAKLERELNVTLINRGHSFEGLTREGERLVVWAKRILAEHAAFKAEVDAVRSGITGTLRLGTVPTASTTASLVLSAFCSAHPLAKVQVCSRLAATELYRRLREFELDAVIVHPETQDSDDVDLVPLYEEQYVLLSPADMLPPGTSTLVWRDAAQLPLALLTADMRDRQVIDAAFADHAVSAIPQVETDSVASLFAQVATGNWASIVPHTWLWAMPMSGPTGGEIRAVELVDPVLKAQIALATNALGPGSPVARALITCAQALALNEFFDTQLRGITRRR
# T2: OxyS (Mycobacterium tuberculosis, UniProt L7N677 1-314)
# T2 sequence: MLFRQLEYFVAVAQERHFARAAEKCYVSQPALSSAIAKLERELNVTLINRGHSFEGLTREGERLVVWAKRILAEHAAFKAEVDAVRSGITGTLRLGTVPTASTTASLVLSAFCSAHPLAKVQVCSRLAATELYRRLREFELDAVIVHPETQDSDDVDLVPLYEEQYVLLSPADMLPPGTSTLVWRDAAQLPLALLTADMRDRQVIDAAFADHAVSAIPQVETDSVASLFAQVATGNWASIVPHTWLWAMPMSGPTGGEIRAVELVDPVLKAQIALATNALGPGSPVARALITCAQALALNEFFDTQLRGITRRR
# How the values were obtained:
# [1] = target: T1, OxyS (Mycobacterium tuberculosis); assay: EMSA; details: 20 mM Tris-HCl pH 7.5, 100 mM NaCl, 2 mM EDTA, room temperature 20 min
# [2] = target: T1, OxyS (Mycobacterium tuberculosis); assay: competition; details: 20 mM Tris-HCl pH 7.5, 100 mM NaCl, 2 mM EDTA, room temperature 20 min
# [3] = target: T2, OxyS; assay: EMSA; 0-300 nM OxyS; 20 mM Tris-HCl pH 7.5, 100 mM NaCl, 2 mM EDTA, room temperature 20 min; […]; details: protein: recombinant; tags: 6xHis (pET28a); chain copies: 4; label: 5'-FITC on forward strand; blunt
Molecule,binding [1],binding [2],binding result [3]
TCGACATCGGCGATAACCCCGCAAGACCGGCAGACGATGTGATGGTGGTTGTCGCCGACCCTGGACTCGTAGCGCGCGACGGAGCCCGAGGGTTGGATCTTTCGCACCAAGCCCGCGGCGGTCAGGGCATGCAGCACGTCGTACACGGCTTGCCGGGATACGTCGGGCAGCGCAAAACGC (double strand) [katGp1],no binding,no binding,–
CCGATGTCGACTGTGCTGTTGGCGAGGCACCCTGTCTGACGGCCTCGGACCATAACGGCTTCCTGTTGGACGAGGCGGAGGTCATCTACTGGGGTCTATGTCCTGATTGTTCGATATCCGACACTTCGCGATCACATCCGTGATCACAGCCCGATAACACCAACTCCTGGAAGGAATGCT (double strand) [katGp2],binds,binds,–
OxyS box1mut (dsDNA) DNA 1: TGTCCCACGGCCTCGCCCCAT DNA 2: ATGGGGCGAGGCCGTGGGACA,–,–,no binding
OxyS box1 (dsDNA) DNA 1: TGTCTGACGGCCTCGGACCAT DNA 2: ATGGTCCGAGGCCGTCAGACA,–,–,binds
